According to patent US20220332804A1 (CSL INNOVATION, published 2022):

Legend:
Assay in all cases: SPR, KD relative to WT C2;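 also: biacore SPR at 37 °C, anti-C2 mAbs captured on anti-human IgG chips with alanine or serine point mutants of C2 as analyte, KD from 1:1 fit compared with wild-type C2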
human C2 E450A = molecular target: T1, human C2 E450A (human, UniProt P06681 21-752)
T1 sequence: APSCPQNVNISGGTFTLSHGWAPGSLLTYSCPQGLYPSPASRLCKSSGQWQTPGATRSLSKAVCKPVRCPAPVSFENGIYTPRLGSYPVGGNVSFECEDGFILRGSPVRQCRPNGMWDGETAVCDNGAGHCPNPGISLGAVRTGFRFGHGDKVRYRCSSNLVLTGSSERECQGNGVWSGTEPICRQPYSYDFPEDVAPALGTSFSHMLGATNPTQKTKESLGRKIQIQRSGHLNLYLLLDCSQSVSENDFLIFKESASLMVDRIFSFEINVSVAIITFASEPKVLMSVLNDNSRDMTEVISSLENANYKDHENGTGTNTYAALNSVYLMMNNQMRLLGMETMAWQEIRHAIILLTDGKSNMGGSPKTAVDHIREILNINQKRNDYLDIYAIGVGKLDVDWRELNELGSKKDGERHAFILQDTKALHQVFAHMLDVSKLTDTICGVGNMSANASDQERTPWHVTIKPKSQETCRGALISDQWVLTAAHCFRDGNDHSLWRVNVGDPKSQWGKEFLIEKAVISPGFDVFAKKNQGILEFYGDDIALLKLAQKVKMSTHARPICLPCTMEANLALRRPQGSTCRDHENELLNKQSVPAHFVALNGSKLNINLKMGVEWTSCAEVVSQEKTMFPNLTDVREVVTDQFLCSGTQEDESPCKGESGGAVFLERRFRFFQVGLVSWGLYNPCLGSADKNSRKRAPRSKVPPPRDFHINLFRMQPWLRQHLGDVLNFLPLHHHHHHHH

human C2 N467A = molecular target: T2, human C2 N467A (human, UniProt P06681 21-752)
T2 sequence: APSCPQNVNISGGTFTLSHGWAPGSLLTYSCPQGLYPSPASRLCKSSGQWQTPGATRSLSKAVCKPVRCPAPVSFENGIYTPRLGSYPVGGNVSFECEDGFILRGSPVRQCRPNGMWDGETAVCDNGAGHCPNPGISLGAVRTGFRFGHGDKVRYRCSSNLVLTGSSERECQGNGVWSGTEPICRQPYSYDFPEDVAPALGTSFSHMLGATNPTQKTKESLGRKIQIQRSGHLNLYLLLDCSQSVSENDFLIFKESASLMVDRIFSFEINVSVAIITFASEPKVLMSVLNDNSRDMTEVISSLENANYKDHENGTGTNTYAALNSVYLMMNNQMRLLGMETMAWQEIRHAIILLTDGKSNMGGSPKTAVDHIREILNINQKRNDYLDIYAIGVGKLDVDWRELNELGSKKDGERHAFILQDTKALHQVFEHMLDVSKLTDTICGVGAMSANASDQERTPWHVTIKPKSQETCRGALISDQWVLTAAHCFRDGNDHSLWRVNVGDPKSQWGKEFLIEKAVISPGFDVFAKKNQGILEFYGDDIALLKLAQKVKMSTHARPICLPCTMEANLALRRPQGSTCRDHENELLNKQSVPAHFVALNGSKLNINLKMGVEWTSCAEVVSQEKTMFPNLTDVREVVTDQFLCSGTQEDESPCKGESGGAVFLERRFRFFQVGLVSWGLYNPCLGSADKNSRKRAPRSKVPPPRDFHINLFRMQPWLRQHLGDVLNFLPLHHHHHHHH

human C2 A444S = molecular target: T3, human C2 A444S (human, UniProt P06681 21-752)
T3 sequence: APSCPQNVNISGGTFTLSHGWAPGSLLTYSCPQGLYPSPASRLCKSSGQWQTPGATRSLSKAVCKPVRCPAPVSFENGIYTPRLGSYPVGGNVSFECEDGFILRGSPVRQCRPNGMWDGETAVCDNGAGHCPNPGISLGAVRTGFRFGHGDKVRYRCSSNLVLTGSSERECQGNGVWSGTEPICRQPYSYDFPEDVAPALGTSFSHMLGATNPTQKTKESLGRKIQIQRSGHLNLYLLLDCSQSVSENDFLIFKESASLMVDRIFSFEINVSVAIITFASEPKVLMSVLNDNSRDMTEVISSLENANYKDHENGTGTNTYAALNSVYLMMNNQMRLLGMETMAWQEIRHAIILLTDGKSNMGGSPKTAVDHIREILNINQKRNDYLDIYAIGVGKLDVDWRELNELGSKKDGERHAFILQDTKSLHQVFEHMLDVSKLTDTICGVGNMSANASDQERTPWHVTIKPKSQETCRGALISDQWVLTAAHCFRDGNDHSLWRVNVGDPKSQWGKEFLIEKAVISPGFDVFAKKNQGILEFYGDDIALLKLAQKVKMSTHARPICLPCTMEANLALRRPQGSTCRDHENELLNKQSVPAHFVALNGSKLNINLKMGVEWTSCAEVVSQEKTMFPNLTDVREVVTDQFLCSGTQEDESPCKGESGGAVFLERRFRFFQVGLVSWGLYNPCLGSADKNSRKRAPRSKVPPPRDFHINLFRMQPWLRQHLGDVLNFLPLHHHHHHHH

human C2 D269A = molecular target: T4, human C2 D269A (human, UniProt P06681 21-752)
T4 sequence: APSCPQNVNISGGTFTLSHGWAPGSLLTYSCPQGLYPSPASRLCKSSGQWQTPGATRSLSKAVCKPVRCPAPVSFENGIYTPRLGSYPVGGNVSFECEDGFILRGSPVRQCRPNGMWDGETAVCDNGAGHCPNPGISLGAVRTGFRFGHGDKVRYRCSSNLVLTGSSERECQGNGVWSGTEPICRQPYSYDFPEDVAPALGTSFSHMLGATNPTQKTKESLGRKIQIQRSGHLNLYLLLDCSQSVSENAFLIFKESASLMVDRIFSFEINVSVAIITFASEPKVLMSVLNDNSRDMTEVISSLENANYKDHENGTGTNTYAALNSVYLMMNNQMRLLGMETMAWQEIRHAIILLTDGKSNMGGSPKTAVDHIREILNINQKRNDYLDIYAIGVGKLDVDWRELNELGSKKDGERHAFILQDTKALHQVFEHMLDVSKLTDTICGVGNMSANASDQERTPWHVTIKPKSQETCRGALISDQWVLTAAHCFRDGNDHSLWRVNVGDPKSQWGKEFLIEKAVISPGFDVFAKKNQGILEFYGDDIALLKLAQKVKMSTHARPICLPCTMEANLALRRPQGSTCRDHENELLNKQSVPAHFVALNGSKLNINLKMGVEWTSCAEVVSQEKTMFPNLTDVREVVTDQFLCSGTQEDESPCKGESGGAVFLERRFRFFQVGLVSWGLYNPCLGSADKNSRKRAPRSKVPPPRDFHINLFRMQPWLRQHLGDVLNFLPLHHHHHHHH

B1: RF16-242 (antibody, human IgG4 S228P, lambda, V domains shown)
VH: EVQLLQSGAEVKKPGESLKISCKGSGYSFTSYWIGWVRQMPGKGLEWMGIIYPGDSDTRYSPSFQGQVTISADKSISTAYLQWSSLKASDTAMYYCARRGHYGDYFDYWGQGTLVTVSS
VL: SYELTQPPSVSVSPGQTARITCSGDALPKKYAYWYHQKSGQAPVLVIYEDRRRPSEIPERFSGSSSGTMATLTITGAQVEDEGVYFCYSRDRAGNQRVFGGGTQLTVLG
notes: pH-dependent anti-C2 antibody from a phage display library
Fold diff (human C2 E450A): 3 fold | Fold diff (human C2 N467A): 2 fold | Fold diff (human C2 A444S): 3 fold | Fold diff (human C2 D269A): 2 fold
